Laboratory results from patent US20060084792A1 (UNITED STATES OF AMERICA AS REPRESENTED BY THE …, published 2006).

Experiments:
[1] = target: the molecule itself; test: TEM, negative stain, after adding 1 mM ATP and 25 mM Mg2+; self-assembly of subunits
Experimental: (§1) Samples were prepared for the electron microscope by drop casting on carbon-coated formvar substrates (Ladd) and stained with 1% uranyl acetate. Samples were visualized using a Leo 912AB electron microscope in bright field TEM mode at 65 kV with a tungsten filament electron source.
(§2) Samples of the five different circular permutated chaperonin polypeptides (without the joined EYFP sequence) were analyzed at 1 hour or 24 hours after addition of 1 mM ATP and 25 mM Mg²⁺ (FIG. 19A-J). All five circular permuted chaperonins analyzed formed double rings having the same structure as wild-type chaperonin double rings, with two rings of nine subunits each (FIG. 19A-E). […] The circular permutated chaperonin polypeptides 480 and 499 formed predominantly filamentous structures. For permutants at positions 480 and 499, heating the sample to 70 degrees C. for 30 minutes immediately after addition of ATP and Mg²⁺ produced longer filaments.

[2] = target: the molecule itself; test: non-denaturing gradient PAGE (FIG. 18) and TEM; self-assembly of subunits
Experimental: (§3) The purity of the proteins was evaluated using denaturing polyacrylamide gel electrophoresis (GeneMate 8-16% Express Gels, ISC BioExpress). The ability of each of the circular permutations to form double rings was assessed by non-denaturing 4-40% gradient polyacrylamide gel (FIG. 18) as previously described (J K Trent, et al., 1991 Nature 354:490-493).
as §1, §2

[3] = target: the molecule itself; test: summary of native PAGE and TEM; self-assembly of subunits
Experimental: as §3, §1, §2

Protein	binding result [2]	further results
position 153 circular permutant chaperonin protein (Sulfolobus shibatae TF55 beta subunit, termini relocated after residue 153) (other, Entry is the single subunit; Original termini are joined by the linker GGSGGT; also called circular permutant at position 153; permutant 153) MAINDTDVLRKVALTSLGSKAVAGAREYLADLVVKAVAQVAELRGDKWYVDLDNVQIVKKHGGSINDTQLVYGIVVDKEVVHPGMPKRIENAKIALLDASLEVEKPELDAEIRINDPTQMHKFLEEEENILKEKVDKIAATGANVVIAQKGIDEVAQHYLAKKGILAVRRAKKSDLEKLARATGGRVISNIDELTSQDLGYAALVEERKVGEDKIVFVEGAKNPKSVSILIRGGLERVVDETERALRDALGTVADVIRDGRAVAGGGAVEIEIAKRLRKYAPQVGGKEQLAIEAYANAIEGLIMILAENAGLDPIDKLMQLRSLHENETNKWYGLNLFTGNPEDMWKLGVIEPALVKMNAIKAATEAVTLVLRIDDIVGGSGGTIPVIILKEGSSRTYGKEALRANIAAVKAIEEALKSTYGPRGMDKILVDSLGDITITNDGATILDKMDLQHPTGKLLVQIAKGQDEETADGTKTAVILAGELAKKAEDLLYKEIHPTIIVSGYKKAEEIALKTIQDIAQPVS	–	binding result [1]: binds
position 316 circular permutant chaperonin protein (Sulfolobus shibatae TF55 beta subunit, termini relocated after residue 316) (other, Entry is the single subunit; Original termini are joined by the linker GGSGGT; Assembles into double rings with two rings of nine subunits each; also called circular permutant at position 316; permutant 316) MAILAVRRAKKSDLEKLARATGGRVISNIDELTSQDLGYAALVEERKVGEDKIVFVEGAKNPKSVSILIRGGLERVVDETERALRDALGTVADVIRDGRAVAGGGAVEIEIAKRLRKYAPQVGGKEQLAIEAYANAIEGLIMILAENAGLDPIDKLMQLRSLHENETNKWYGLNLFTGNPEDMWKLGVIEPALVKMNAIKAATEAVTLVLRIDDIVGGSGGTIPVIILKEGSSRTYGKEALRANIAAVKAIEEALKSTYGPRGMDKILVDSLGDITITNDGATILDKMDLQHPTGKLLVQIAKGQDEETADGTKTAVILAGELAKKAEDLLYKEIHPTIIVSGYKKAEEIALKTIQDIAQPVSINDTDVLRKVALTSLGSKAVAGAREYLADLVVKAVAQVAELRGDKWYVDLDNVQIVKKHGGSINDTQLVYGIVVDKEVVHPGMPKRIENAKIALLDASLEVEKPELDAEIRINDPTQMHKFLEEEENILKEKVDKIAATGANVVIAQKGIDEVAQHYLAKKG	binds	–
position 267 circular permutant chaperonin protein (Sulfolobus shibatae TF55 beta subunit, termini relocated after residue 267) (other, Entry is the single subunit; Original termini are joined by the linker GGSGGT; Assembles into double rings with two rings of nine subunits each) MADPTQMHKFLEEEENILKEKVDKIAATGANVVIAQKGIDEVAQHYLAKKGILAVRRAKKSDLEKLARATGGRVISNIDELTSQDLGYAALVEERKVGEDKIVFVEGAKNPKSVSILIRGGLERVVDETERALRDALGTVADVIRDGRAVAGGGAVEIEIAKRLRKYAPQVGGKEQLAIEAYANAIEGLIMILAENAGLDPIDKLMQLRSLHENETNKWYGLNLFTGNPEDMWKLGVIEPALVKMNAIKAATEAVTLVLRIDDIVGGSGGTIPVIILKEGSSRTYGKEALRANIAAVKAIEEALKSTYGPRGMDKILVDSLGDITITNDGATILDKMDLQHPTGKLLVQIAKGQDEETADGTKTAVILAGELAKKAEDLLYKEIHPTIIVSGYKKAEEIALKTIQDIAQPVSINDTDVLRKVALTSLGSKAVAGAREYLADLVVKAVAQVAELRGDKWYVDLDNVQIVKKHGGSINDTQLVYGIVVDKEVVHPGMPKRIENAKIALLDASLEVEKPELDAEIRIN	–	binding result [3]: binds
position 499 circular permutant chaperonin protein (Sulfolobus shibatae TF55 beta subunit, termini relocated after residue 499) (other, Entry is the single subunit; Original termini are joined by the linker GGSGGT; Assembles into double rings with two rings of nine subunits each; also called circular permutant at position 499; permutant 499) MALGVIEPALVKMNAIKAATEAVTLVLRIDDIVGGSGGTIPVIILKEGSSRTYGKEALRANIAAVKAIEEALKSTYGPRGMDKILVDSLGDITITNDGATILDKMDLQHPTGKLLVQIAKGQDEETADGTKTAVILAGELAKKAEDLLYKEIHPTIIVSGYKKAEEIALKTIQDIAQPVSINDTDVLRKVALTSLGSKAVAGAREYLADLVVKAVAQVAELRGDKWYVDLDNVQIVKKHGGSINDTQLVYGIVVDKEVVHPGMPKRIENAKIALLDASLEVEKPELDAEIRINDPTQMHKFLEEEENILKEKVDKIAATGANVVIAQKGIDEVAQHYLAKKGILAVRRAKKSDLEKLARATGGRVISNIDELTSQDLGYAALVEERKVGEDKIVFVEGAKNPKSVSILIRGGLERVVDETERALRDALGTVADVIRDGRAVAGGGAVEIEIAKRLRKYAPQVGGKEQLAIEAYANAIEGLIMILAENAGLDPIDKLMQLRSLHENETNKWYGLNLFTGNPEDMWK	binds	–
position 480 circular permutant chaperonin protein (Sulfolobus shibatae TF55 beta subunit, termini relocated after residue 480) (other, Entry is the single subunit; Original termini are joined by the linker GGSGGT; Assembles into double rings with two rings of nine subunits each; also called circular permutant at position 480; permutant 480) MANKWYGLNLFTGNPEDMWKLGVIEPALVKMNAIKAATEAVTLVLRIDDIVGGSGGTIPVIILKEGSSRTYGKEALRANIAAVKAIEEALKSTYGPRGMDKILVDSLGDITITNDGATILDKMDLQHPTGKLLVQIAKGQDEETADGTKTAVILAGELAKKAEDLLYKEIHPTIIVSGYKKAEEIALKTIQDIAQPVSINDTDVLRKVALTSLGSKAVAGAREYLADLVVKAVAQVAELRGDKWYVDLDNVQIVKKHGGSINDTQLVYGIVVDKEVVHPGMPKRIENAKIALLDASLEVEKPELDAEIRINDPTQMHKFLEEEENILKEKVDKIAATGANVVIAQKGIDEVAQHYLAKKGILAVRRAKKSDLEKLARATGGRVISNIDELTSQDLGYAALVEERKVGEDKIVFVEGAKNPKSVSILIRGGLERVVDETERALRDALGTVADVIRDGRAVAGGGAVEIEIAKRLRKYAPQVGGKEQLAIEAYANAIEGLIMILAENAGLDPIDKLMQLRSLHENET	binds	–
